Assay results from paper PMC9854632, “Relationships between the Reversible Oxidation of the Single Cysteine Residue and the Physiological Function of the Mitochondrial Glutaredoxin S15 from Arabidopsis thaliana” (Antioxidants, 2022).

What was measured:
Cys91 = Cys91 (UniProt position 91, PESPQCGFSSL); experiment: chemical modification; settings: room temperature; not stated (100 mM buffers, no added salt stated); 100 mM citrate buffers from pH 2.0 to 6.0; 100 mM phosphate buffers from pH 6.5 to 8.0; reduced (TCEP pre-reduced, desalted) apo monomer, 10 µM
[1] = target: T1, AtGRXS15 (reduced monomer) (Arabidopsis thaliana, UniProt Q8LBK6); experiment: mBBr fluorescence titration of remaining free thiol; type: binding; settings: oxidant concentration for half-maximal protein thiol oxidation, no equilibrium or Michaelis constant; covalent (Cys91); 5 µM protein, 1 h, RT, 30 mM Tris-HCl pH 8.0, 200 mM NaCl
T1 construct: gene GRXS15; about 17 kDa on mPEG24 gel
T1 sequence (Q8LBK6 38-169): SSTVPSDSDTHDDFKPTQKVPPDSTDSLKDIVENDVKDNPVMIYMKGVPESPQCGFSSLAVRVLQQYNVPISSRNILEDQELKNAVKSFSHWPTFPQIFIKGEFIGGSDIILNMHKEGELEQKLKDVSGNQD

Cys = settings: cited from earlier work
[2] = target: the molecule itself; experiment: non-reducing SDS-PAGE after oxidation and thiol alkylation (mPEG24); pre-reduced AtGRXS15 (13 µM) incubated with 5- or 10-fold molar excess of H2O2, DTTox, GSSG or GSNO for 2 h at RT; TCA precipitation, mPEG24 alkylation, non-reducing SDS-PAGE; dimer mainly with H2O2, to some extent with GSSG and GSNO, no oxidation with DTTox

“Glutaredoxin S15, mitochondrial (AtGRXS15) (Arabidopsis thaliana)” showed a pKa (Cys91) of 4.0 ± 0.1.

In the case of N[C@@H](CCC(=O)N[C@@H](CSN=O)C(=O)NCC(=O)O)C(=O)O [GSNO], the S0.5 [1] is reported as 21 ± 1 µM.

In the case of “Monothiol glutaredoxin 5, mitochondrial (Grx5) (Saccharomyces cerevisiae)”, the pKa (Cys) is given as about 5.0.

For “Glutaredoxin S16 (AtGRXS16) (Arabidopsis thaliana)”, the pKa (Cys) is listed as about 3.9.

B1: Arabidopsis thaliana mitochondrial glutaredoxin S15 (natural protein, UniProt Q8LBK6 38-169, looked up)
chain: SSTVPSDSDTHDDFKPTQKVPPDSTDSLKDIVENDVKDNPVMIYMKGVPESPQCGFSSLAVRVLQQYNVPISSRNILEDQELKNAVKSFSHWPTFPQIFIKGEFIGGSDIILNMHKEGELEQKLKDVSGNQD
notes: single cysteine Cys91 in the CGFS motif; no tag is named; The fractions kept after the last SEC step were the monomeric ones; The dimer seen after oxidation is covalent (intermolecular disulfide); also called AtGRXS15; GRXS15; source: E. coli C41(DE3) with pSBET helper plasmid, purified (ammonium sulfate, SEC, Q-sepharose, Superdex S75); pre-reduced with TCEP
For B1, the “stoichiometry N” value [2] was 2.
